Laboratory results as given in US20170202936A1, “Identification, Optimization And Use Of Cryptic HLA-B7 Epitopes For Immunotherapy” (VAXON BIOTECH, priority 2006, published 2017).

Biological target: HLA-B*0702 (human)
Assay: T2-B7 cells, HLA-B*0702 surface expression (ME-1 mAb); ratio to reference peptide CMV265-274 (SEQ ID NO: 9)
Conditions: remark: other sources report otherwise

RA (relative affinity): > 10
Binder: DPRRLVQLL [TERT444]
